Results published in the supplement of paper PMC11246515.
± gives the standard deviation of the averaged measurements.

Assay: total protein half-life in vivo (active degradation + dilution); higher = more stable protein
[1] = E. coli NCM3722 delta-clpP delta-lon delta-hslV, growth: N-lim chemostat, doubling time 6 h
[2] = E. coli NCM3722 delta-clpP, growth: N-lim chemostat, doubling time 6 h
[3] = E. coli NCM3722 delta-hslV, growth: N-lim chemostat, doubling time 6 h
[4] = E. coli NCM3722 delta-smpB, growth: N-lim chemostat, doubling time 6 h
[5] = wild type E. coli NCM3722, growth: C-lim chemostat, doubling time 3 h
[6] = wild type E. coli NCM3722, growth: C-lim chemostat, doubling time 6 h
[7] = wild type E. coli NCM3722, growth: C-lim chemostat, doubling time 12 h
[8] = wild type E. coli NCM3722, growth: N-lim chemostat, doubling time 6 h
[9] = wild type E. coli NCM3722, growth: N-lim chemostat, doubling time 12 h
[10] = wild type E. coli NCM3722, growth: P-lim chemostat, doubling time 6 h
[11] = wild type E. coli NCM3722, growth: P-lim chemostat, doubling time 12 h
[12] = E. coli NCM3722 delta-lon, growth: N-lim chemostat, doubling time 6 h

Sequence of P0AFC7 (chain, as listed by the source): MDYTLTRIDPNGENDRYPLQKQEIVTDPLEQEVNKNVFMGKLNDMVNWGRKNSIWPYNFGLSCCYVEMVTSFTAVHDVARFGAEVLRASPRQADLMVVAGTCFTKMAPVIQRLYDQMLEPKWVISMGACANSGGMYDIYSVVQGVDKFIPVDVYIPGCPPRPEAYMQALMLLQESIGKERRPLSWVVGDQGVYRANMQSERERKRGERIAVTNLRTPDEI

Substance | total protein half-life in vivo [1] [h] | total protein half-life in vivo [2] [h] | total protein half-life in vivo [3] [h] | total protein half-life in vivo [4] [h] | total protein half-life in vivo [5] [h] | total protein half-life in vivo [6] [h] | total protein half-life in vivo [7] [h] | total protein half-life in vivo [8] [h] | total protein half-life in vivo [9] [h] | total protein half-life in vivo [10] [h] | total protein half-life in vivo [11] [h] | total protein half-life in vivo [12] [h]
MSQRITIDPVTRIEGHLRIDCEIENGVVSKAWASGTMWRGMEEIVKNRDPRDAWMIVQRICGVCTTTHALSSVRAAESALNIDVPVNAQYIRNIILAAHTTHDHIVHFYQLSALDWVDITSALQADPTKASEMLKGVSTWHLNSPEEFTKVQNKIKDLVASGQLGIFANGYWGHPAMKLPPEVNLIAVAHYLQALECQRDANRVVALLGGKTPHIQNLAVGGVANPINLDGLGVLNLERLMYIKSFIDKLSDFVEQVYKVDTAVIAAFYPEWLTRGKGAVNYLSVPEFPTDSKNGSFLFPGGYIENADLSSYRPITSHSDEYLIKGIQESAKHSWYKDEAPQAPWEGTTIPAYDGWSDDGKYSWVKSPTFYGKTVEVGPLANMLVKLAAGRESTQNKLNEIVAIYQKLTGNTLEVAQLHSTLGRIIGRTVHCCELQDILQNQYSALITNIGKGDHTTFVKPNIPATGEFKGVGFLEAPRGMLSHWMVIKDGIISNYQAVVPSTWNSGPRNFNDDVGPYEQSLVGTPVADPNKPLEVVRTIHSFDPCMACAVHVVDADGNEVVSVKVL [P0ACE0] | 5.01 ± 1.1 | 4.55 ± 1.2 | 3.87 ± 1.6 | 2.6 ± 0.2 | 2.07 ± 0.18 | 4.37 ± 1 | 7.59 ± 2.3 | 3.47 ± 0.036 | 4.62 | 4.92 ± 2.1 | 10.7 ± 4.1 | 
MKKIDAIIKPFKLDDVREALAEVGITGMTVTEVKGFGRQKGHTELYRGAEYMVDFLPKVKIEIVVPDDIVDTCVDTIIRTAQTGKIGDGKIFVFDVARVIRIRTGEEDDAAI [P0A9Z1] | 5.76 ± 0.58 | 5.59 ± 1.1 | 5.06 ± 0.23 | 4.77 ± 0.36 | 3.3 ± 0.45 | 5.57 ± 0.17 | 10.5 ± 1.1 | 4.68 ± 0.49 | 8.91 ± 0.19 | 5.77 ± 0.31 | 11.6 ± 0.54 | 5.35 ± 0.13
MTLSFVTRWRDELPETYTALSPTPLNNARLIWHNTELANTLSIPSSLFKNGAGVWGGEALLPGMSPLAQVYSGHQFGVWAGQLGDGRGILLGEQLLADGTTMDWHLKGAGLTPYSRMGDGRAVLRSTIRESLASEAMHYLGIPTTRALSIVTSDSPVYRETAEPGAMLMRVAPSHLRFGHFEHFYYRRESEKVRQLADFAIRHYWSHLADDEDKYRLWFSDVVARTASLIAQWQTVGFAHGVMNTDNMSLLGLTLDYGPFGFLDDYEPGFICNHSDHQGRYSFDNQPAVALWNLQRLAQTLSPFVAVDALNEALDSYQQVLLTHYGERMRQKLGFMTEQKEDNALLNELFSLMARERSDYTRTFRMLSLTEQHSAASPLRDEFIDRAAFDDWFARYRGRLQQDEVSDSERQQLMQSVNPALVLRNWLAQRAIEAAEKGDMTELHRLHEALRNPFSDRDDDYVSRPPDWGKRLEVSCSS | 4.63 ± 0.32 | 4.26 ± 0.67 | 3.15 ± 0.38 | 2.8 ± 0.21 | 2.72 ± 0.068 | 4.57 ± 0.15 | 8.02 ± 1.4 | 2.971 ± 0.012 | 4.63 ± 0.64 | 4.72 ± 0.71 | 8.293 ± 0.077 | 3.26 ± 0.13
MPSARLQQQFIRLWQCCEGKSQDTTLNELAALLSCSRRHMRTLLNTMQDRGWLTWEAEVGRGKRSRLTFLYTGLALQQQRAEDLLEQDRIDQLVQLVGDKATVRQMLVSHLGRSFRQGRHILRVLYYRPLRNLLPGSALRRSETHIARQIFSSLTRINEENGELEADIAHHWQQISPLHWRFFLRPGVHFHHGRELEMDDVIASLKRINTLPLYSHIADIVSPTPWTLDIHLTQPDRWLPLLLGQVPAMILPREWETLSNFASHPIGTGPYAVIRNSTNQLKIQAFDDFFGYRALIDEVNVWVLPEIADEPAGGLMLKGPQGEEKEIESRLEEGCYYLLFDSRTHRGANQQVRDWVSYVLSPTNLVYFAEEQYQQLWFPAYGLLPRWHHARTIKSEKPAGLESLTLTFYQDHSEHRVIAGIMQQILASHQVTLKIKEIDYDQWHTGEIESDIWLNSANFTLPLDFSVFAHLCEVPLLQHCIPIDWQADAARWRNGEMNLANWCQQLVASKAMVPLLHHWLIIQGQRSMRGLRMNTLGWFDFKSAWFAPPDP | 6.14 ± 0.11 | 6.77 ± 0.29 |  | 5.32 ± 0.33 |  | 5.64 ± 0.28 | 11.9 ± 2.8 | 5.67 ± 0.6 | 13.4 ± 0.32 | 5.35 ± 0.34 | 9.889 ± 0.087 | 5.83 ± 0.34
MNEVVNSGVMNIASLVVSVVVLLIGLILWFFINRASSRTNEQIELLEALLDQQKRQNALLRRLCEANEPEKADKKTVESQKSVEDEDIIRLVAER | 3.97 ± 0.73 | 6.38 |  | 1.31 | 2.6 |  |  | 1.78 |  | 2.17 | 3.4 ± 1.1 | 1.45
MPTQEAKAHHVGEWASLRNTSPEIAEAIFEVAGYDEKMAEKIWEEGSDEVLVKAFAKTDKDSLFWGEQTIERKNV [P0AB14] | 5.53 ± 0.41 |  | 2.63 | 2.46 ± 0.13 | 2.55 ± 0.13 | 4.15 ± 0.58 | 5.68 ± 1 | 2.39 ± 0.054 | 3.85 ± 1.1 | 3.02 ± 0.39 | 5.43 ± 0.18 | 3.45 ± 0.75
P0AFC7 | 6.19 ± 0.65 | 5.993 ± 0.019 | 6.34 ± 0.17 | 5.87 ± 0.17 | 2.92 ± 0.093 | 5.98 ± 0.26 | 11.2 ± 1.5 | 6.54 ± 0.77 | 12.5 ± 0.86 | 5.59 ± 0.15 | 12.5 ± 0.61 | 5.81 ± 1.1
MLKVLLLFVLLIAGIVVGPMIAGHQGYVLIQTDNYNIETSVTGLAIILILAMVVLFAIEWLLRRIFRTGAHTRGWFVGRKRRRARKQTEQALLKLAEGDYQQVEKLMAKNADHAEQPVVNYLLAAEAAQQRGDEARANQHLERAAELAGNDTIPVEITRVRLQLARNENHAARHGVDKLLEVTPRHPEVLRLAEQAYIRTGAWSSLLDIIPSMAKAHVGDEEHRAMLEQQAWIGLMDQARADNGSEGLRNWWKNQSRKTRHQVALQVAMAEHLIECDDHDTAQQIIIDGLKRQYDDRLLLPIPRLKTNNPEQLEKVLRQQIKNVGDRPLLWSTLGQSLMKHGEWQEASLAFRAALKQRPDAYDYAWLADALDRLHKPEEAAAMRRDGLMLTLQNNPPQ [P0ACB7] | 5.91 ± 0.1 | 6.4161 ± 0.0029 |  | 5.98 ± 0.073 | 3.13 ± 0.12 | 6.13 ± 0.2 | 13.2 ± 0.85 | 6.64 ± 0.65 | 12.6 ± 0.5 | 6.1 ± 0.41 | 12.6 ± 0.95 | 6.1592 ± 0.004
